Test results taken from patent publication US6897296.

Target: bacterially expressed recombinant Mch4 (GST-Mch4 fusion protein) (human)

DEVD-CHO (tetrapeptide DEVD aldehyde)
Ki: 14 nM
